The values below come from patent US11660340B2, “Combination therapy using T cell redirection antigen binding molecule against cell having immunosuppressing function” (CHUGAI SEIYAKU KABUSHIKI KAISHA, priority 2015, dated 2023).

Assay [1] relates to CT26.WT cells. Kind of assay: Combined use of mCTLA4/mCD3 and gemcitabine, CT26.WT cell-transplanted model. In kind it is in vivo. To be noted: final measurement point; mCTLA4/mCD3 25 μg/mouse day 9, gemcitabine 120 mg/kg day 8, tail vein; n=5; FIG. 19. On the procedure:
BALB/cA mice and C57BL/6N mice were purchased from Charles River Laboratories Japan, Inc. The CT26.WT cells or the CT26/hGPC3 cells were transplanted subcutaneously to BALB/cA mice, and the LL/2 (LLC1) cells or the LLC1/hGPC3 cells were transplanted subcutaneously to C57BL/6N mice. Models were established when the average volume of the transplanted tumors reached approximately 100 mm^3 to 200 mm^3.
The volume of the transplanted tumor was calculated using the following equation: Tumor volume (mm^3)=major axis (mm)×minor axis (mm)×minor axis (mm)/2
As the pharmaceutical agents to be administered for the combined use test, the anti-mouse CTLA4/anti-mouse CD3 bispecific monoclonal antibody (mCTLA4/mCD3) was prepared at 0.125 mg/mL in PBS (−), and a pyrimidine analog (antimetabolite), gemcitabine (Gemzar: Eli Lilly Japan) was prepared at 12 mg/mL in physiological saline solution (Otsuka Pharmaceutical).
To evaluate the effects of combined use of the anti-mouse CTLA4/anti-mouse CD3 bispecific monoclonal antibody (mCTLA4/mCD3) and gemcitabine, the CT26.WT cell-transplanted model was used and given through the tail vein gemcitabine at 120 mg/kg eight days after transplantation and […] at 25 μg/mouse nine days after transplantation.
Antitumor effects were evaluated from the tumor volumes calculated using the equation shown in (2) of Example 1. […]

The target of assay [2] is T1, mFcgRIV (Mus musculus, UniProt A0A0B4J1G0).
T1 sequence (A0A0B4J1G0 21-249): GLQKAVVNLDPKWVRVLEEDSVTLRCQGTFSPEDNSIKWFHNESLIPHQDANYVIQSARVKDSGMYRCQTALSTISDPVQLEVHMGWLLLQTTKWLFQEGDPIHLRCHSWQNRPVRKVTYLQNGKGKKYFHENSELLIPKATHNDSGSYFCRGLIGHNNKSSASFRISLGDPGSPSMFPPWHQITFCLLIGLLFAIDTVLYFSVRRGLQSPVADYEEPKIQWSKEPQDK
Kind of assay: Biacore T200 binding of anti-mouse CTLA4 antibody to mouse FcgR. As to conditions: 1:1 binding RI = 0, 25° C., pH7.4. On the procedure:
(§1) Anti-mouse CTLA4 antibody hUH02hUL01-mFa55 and control antibody hUH02hUL01-mIgG2a (the heavy chain variable region UH02 is SEQ ID NO: 28, the light chain variable region UL01 is SEQ ID NO: 29, the heavy chain constant region mIgG2a is SEQ ID NO: 32, and the light chain constant region mk1 is SEQ ID NO: 31) purified and prepared by the method of Reference Example 2-1 were analyzed for their antigen-antibody reactions with various mouse FcgRs (mFcgRI, II, III, and IV) using Biacore™ T200 (GE Healthcare). The running buffer used was 20 mmol/L ACES, 150 mmol/L NaCl, 0.05% (w/v) Tween®20 at pH7.4, and measurements were taken at 25° C. Protein A/G was immobilized onto a Sensor Chip CM7 by amine coupling. hUH02hUL01-mFa55 was captured onto the sensorchip, and then FcgR was allowed to interact as an analyte for 120 seconds, and change in the bound amount was observed. The running buffer was used for dilution of hUH02hUL01-mFa55. The measurement results were analyzed by curve fitting using the Biacore™ T200 Evaluation Software (GE Healthcare) to calculate the association rate constants ka (l/Ms) and the dissociation rate constants kd (l/s). From those values, the dissociation constants KD (M) were determined.

Assay [3] has as its target T2, mFcgRII (Mus musculus, UniProt P08101).
T2 sequence (P08101 30-330): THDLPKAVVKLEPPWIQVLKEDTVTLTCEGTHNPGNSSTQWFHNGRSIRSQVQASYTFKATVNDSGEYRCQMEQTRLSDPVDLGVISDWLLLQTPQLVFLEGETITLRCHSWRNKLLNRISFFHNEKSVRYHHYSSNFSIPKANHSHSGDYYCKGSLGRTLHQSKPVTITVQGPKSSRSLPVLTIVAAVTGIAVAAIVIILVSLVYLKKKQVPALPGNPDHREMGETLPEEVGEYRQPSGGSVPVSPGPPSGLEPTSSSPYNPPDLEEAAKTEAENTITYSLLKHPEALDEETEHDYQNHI
Described as above. As to conditions: 1:1 binding RI = 0, 25° C., pH7.4. Here is the method: as §1

Assay [4] has as its target T3, mFcgRIII (Mus musculus, UniProt P08508).
T3 sequence (P08508 31-261): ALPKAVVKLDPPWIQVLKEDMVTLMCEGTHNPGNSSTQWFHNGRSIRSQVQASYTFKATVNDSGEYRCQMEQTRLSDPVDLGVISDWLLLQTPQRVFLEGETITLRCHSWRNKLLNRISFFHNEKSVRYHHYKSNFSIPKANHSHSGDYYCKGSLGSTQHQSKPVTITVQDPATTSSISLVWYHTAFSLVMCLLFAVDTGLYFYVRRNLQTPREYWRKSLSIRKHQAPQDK
The description is as above. As to conditions: 1.1 binding RI = 0, 25° C., pH7.4. On the procedure:
as §1

Assay [5] deals with T4, mFcgRI (Mus musculus, UniProt P26151).
T4 sequence (P26151 25-404): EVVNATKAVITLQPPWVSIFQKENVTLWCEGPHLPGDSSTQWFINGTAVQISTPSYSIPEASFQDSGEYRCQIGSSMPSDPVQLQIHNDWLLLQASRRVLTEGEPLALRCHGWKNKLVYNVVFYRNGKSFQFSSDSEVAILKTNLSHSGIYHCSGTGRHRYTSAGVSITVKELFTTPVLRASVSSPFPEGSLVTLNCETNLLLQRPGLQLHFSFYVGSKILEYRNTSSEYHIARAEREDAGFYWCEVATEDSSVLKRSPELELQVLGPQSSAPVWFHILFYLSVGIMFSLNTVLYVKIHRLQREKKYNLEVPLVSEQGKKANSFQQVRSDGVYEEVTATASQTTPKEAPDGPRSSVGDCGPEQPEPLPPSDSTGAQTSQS
Described as above. As to conditions: 1:1 binding RI = 0, 25° C., pH7.4. Here is the method: as §1

The test system of assay [6] is mouse CTLA4-expressing cells (CHO/mouse CTLA4 cells). Briefly: ADCC activity, chromium-release assay with mFcgR4-NK92 effector cells. Format: cell-based. To be noted: antibody 0, 0.04, 0.4, 4, 40 μg/ml, FIG. 5. The source says:
Whether anti-mouse CTLA4 antibody hUH02hUL01-mFa55 purified and prepared by the method of Reference Example 2-1 exerts ADCC activity on mouse CTLA4-expressing cells (mouse CTLA4-expressing cells were produced by a method known to those skilled in the art by introducing the full length mouse CTLA4 gene into CHO cells) was examined according to the method of Reference Example 11.
Regarding anti-mouse CTLA4 antibodies, antibody concentration-dependent ADCC activities of test antibodies were measured, using the mouse FcgR4-expressing human NK cell line NK-92 (hereinafter referred to as mFcgR4-NK92) as effector cells by following the method described below.
After washing mFcgR4-NK92 with RPMI-1640 (nacalai tesque) containing 10% FBS (hereinafter referred to as 10% FBS/RPMI), the cells were suspended in 10% FBS/RPMI at a cell density of 4×10^5 cells/ml. […]
The ADCC activities were evaluated from the specific chromium release rate according to the chromium release method. […] The radioactivity of 100 μl of culture supernatant in each well of the plate was measured using a gamma counter. The specific chromium release rate was determined based on the following equation. […] The examinations were performed in duplicate and the mean value for the specific chromium release rate (%) of the test antibody was calculated.

`Nc1ccn([C@@H]2O[C@H](CO)[C@@H](O)C2(F)F)c(=O)n1` [gemcitabine]: the “tumor volume vs. the PBS-administered group (Tukey multiple comparison test)” value in assay [1] is recorded as “significant differences (p<0.05)”.

B1: hUH02hUL01-mFa55: anti-mouse CTLA4 antibody, mouse IgG2a/kappa, constant region mFa55 modified to enhance binding to mouse FcγR (ADCC-enhanced) (antibody)
heavy: QVQLQESGPGLVKPSETLSLTCTVSGYSISSGYGWNWIRQPPGKGLEWIGFIYYEGSTYYNPSIKSRISITRDTSKNQFFLQVNSVTTEDTATYYCARQTGYFDYWGQGTLVTVSSAKTTAPSVYPLAPVCGDTTGSSVTLGCLVKGYFPEPVTLTWNSGSLSSGVHTFPAVLQSDLYTLSSSVTVTSSTWPSQSITCNVAHPASSTKVDKKIEPRGPTIKPCPPCKCPAPNLLGGPDVFIFPPKIKDVLMISLSPIVTCVVVDVSEDDPDVQISWFVNNVEVHTAQTQTHREDYNSTLRVVSALPIQHQDWMSGKEFKCKVNNKDLPAPIERTISKPKGSVRAPQVYVLPPPEEEMTKKQVTLTCMVTDFMPEDIYVEWTNNGKTELNYKNTEPVLDSDGSYFMYSKLRVEKKNWVERNSYSCSVVHEGLHNHHTTKSFSRTPGK
light: DIVMTQSPDSLAVSLGERATINCKSSQSLFNSNAKTNYLNWYQQKPGQPPKLLIYYASTRHTGVPDRFSGSGSGTDFTLTISSLQAEDVAVYYCQQWYDYPYTFGAGTKVEIKRADAAPTVSIFPPSSEQLTSGGASVVCFLNNFYPKDINVKWKIDGSERQNGVLNSWTDQDSKDSTYSMSSTLTLTKDEYERHNSYTCEATHKTSTSPIVKSFNRNEC
Consider B1, for which the ka in assay [2] stood at 1.5e+06 M⁻¹ s⁻¹; in assay [3], 2.1e+06 M⁻¹ s⁻¹; in assay [4], 2.4e+06 M⁻¹ s⁻¹; in assay [5], 1.2e+06 M⁻¹ s⁻¹. Further, the kd in assay [2] was determined as 0.0028 s⁻¹; in assay [3] it was 0.76 s⁻¹; in assay [4], 0.62 s⁻¹; in assay [5] it was 0.0031 s⁻¹. Also, the “ADCC activity (specific chromium release rate)” value in assay [6] is recorded as “ADCC activity in an antibody concentration-dependent manner”.
